The results in this text go back to the supplement of paper PMC7877785.

± gives the uncertainty stated by the source.

A short description of this data set: self-splicing fitness, log relative to wild type (ln ratio); higher = more splicing; Tetrahymena group I intron in knt gene, E. coli kanamycin selection, DiMSum; sequences stand for … in CUCUCU…GGAGGGAAAAGUUAUCAGGCAUGCACCUGGUAGCUAGUCUUUAAACCAAUAGAUUGCAUCGGUUUAAAAGGCAAGACCGUCAAAUUGCGGGAAAGGGGUCAACAGCCGUUCAGUACCAAGUCUCAGGGGAAACUUUGAGAUGGCCUUGCAAAGGGUAUGGUAAUAAGCUGACGGACAUGGUCCUAACCACGCAGCCAAGUCCUAAGUCAACAGAUCUUCUGUUGAUAUGGAUGCAGUUCACAGACUAAAUGUCGGUCGGGGAAGAUGUAUUCUUCUCAUAAGAUAUAGUCGGACCUCUCCUUAAUGGGAGCUAGCGGAUGAAGUGAUGCAACACUGGAGCCGCUGGGAACUAAUUUGUAUGCGAAAGUAUAUUGAUUAGUUUUGGAGUACUCGUGGUCG
Summed up: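 Six replicate transformations of E. coli BL21(DE3) with a pET-22b(+) library were grown overnight at 37°C or 30°C. The library randomised all eight P1ex-region intron nucleotides, the intron lying in the knt kanamycin-resistance gene, and plates were LB agar with or without 25 μg/mL kanamycin plus 100 μg/mL carbenicillin, 50 μM IPTG and 0.2% rhamnose. Pooled colonies were amplicon-sequenced on an Illumina HiSeq 2500, and fitness is the DiMSum error-weighted combination of wild-type-normalised replicate fold changes, kanamycin versus none.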

Turning to UUCCAGCAAUAUUACGUGUA, the “self-splicing fitness (ln)” value (30 °C) is -0.989 ± 0.058 and the “self-splicing fitness (ln)” value (37 °C) is -0.572 ± 0.064.
On to UUCCAGCAAUAUUACGUGUG, for which the “self-splicing fitness (ln)” value reads like this: (30 °C) -0.736 ± 0.04; (37 °C) -0.164 ± 0.055.
On the same counts, the results for UUCCAGCAAUAUUACGUGUU are -4.2 ± 0.25 and -2.48 ± 0.21.
In the same order, the values of UUCCAGCAAUAUUACGUUGA are -1.63 ± 0.078 and -1.17 ± 0.092.
As for UUCGAGCAAUAUUACGAAAG, the “self-splicing fitness (ln)” value (30 °C) is -2.66 ± 0.36.
Turning to UUCGAGCAAUAUUACGAACA, the “self-splicing fitness (ln)” value is -2.9 ± 0.28 (30 °C) and -1.73 ± 0.18 (37 °C).
On to UUCGAGCAAUAUUACGAAGU, for which the “self-splicing fitness (ln)” value (37 °C) was -1.57 ± 0.32.
Still for that read-out and setting: next, UUCGAGCAAUAUUACGAAUC: -2.97 ± 0.4.
Consider UUCGAGCAAUAUUACGAGCU, for which the “self-splicing fitness (ln)” value runs as follows: (30 °C) -3.65 ± 0.43; (37 °C) -2.44 ± 0.45.
On the same counts, the results for UUCGAGCAAUAUUACGAUUU are -4.18 ± 0.28 and -2.19 ± 0.2.
Take UUCGAGCAAUAUUACGCAUU: the “self-splicing fitness (ln)” value (37 °C) is -2.81 ± 0.43.
For UUCGAGCAAUAUUACGCCUA, the “self-splicing fitness (ln)” value was -1.67 ± 0.11 (30 °C) and -1.39 ± 0.097 (37 °C).
In the case of UUCGAGCAAUAUUACGCGCA, the “self-splicing fitness (ln)” value (30 °C) was -0.15 ± 0.13 and the “self-splicing fitness (ln)” value (37 °C) was -0.296 ± 0.17.
On to UUCGAGCAAUAUUACGCUAC, for which, under “37 °C”, the “self-splicing fitness (ln)” value was -0.0805 ± 0.34.
For the sequence UUCGAGCAAUAUUACGCUGU, the “self-splicing fitness (ln)” value runs as follows: (30 °C) -3.54 ± 0.2; (37 °C) -2.14 ± 0.21.
On the same counts, the results for UUCGAGCAAUAUUACGGACU are -4.76 ± 0.38 and -2.63 ± 0.21.
In the same order, the values of UUCGAGCAAUAUUACGGAUU are -3.84 ± 0.23 and -3.1 ± 0.29.
In the same order, the values of UUCGAGCAAUAUUACGGCAA are -0.587 ± 0.099 and -0.26 ± 0.12.
In the case of UUCGAGCAAUAUUACGGCUG, the “self-splicing fitness (ln)” value is, setting by setting: (30 °C) -2.58 ± 0.23; (37 °C) -1.81 ± 0.22.
On the same counts, the results for UUCGAGCAAUAUUACGGCUU are -3.14 ± 0.18 and -2.65 ± 0.33.
Take UUCGAGCAAUAUUACGGGCU: the “self-splicing fitness (ln)” value (37 °C) is -3.81 ± 0.42.
As for UUCGAGCAAUAUUACGGUAG, the “self-splicing fitness (ln)” value runs as follows: (30 °C) -3.12 ± 0.31; (37 °C) -0.753 ± 0.14.
In the same order, the values of UUCGAGCAAUAUUACGGUUA are -1.19 ± 0.13 and -1.05 ± 0.1.
In the case of UUCUAGCAAUAUUACGACAA, the “self-splicing fitness (ln)” value is -0.37 ± 0.12 (30 °C) and -0.0185 ± 0.17 (37 °C).
Regarding UUCUAGCAAUAUUACGACGA, the “self-splicing fitness (ln)” value by setting is: (30 °C) -0.439 ± 0.12; (37 °C) 0.731 ± 0.14.
On to UUCUAGCAAUAUUACGACGC, for which, where the note is “30 °C”, the “self-splicing fitness (ln)” value was -2.76 ± 0.44.
Consider UUCUAGCAAUAUUACGAGGG, for which the “self-splicing fitness (ln)” value (37 °C) was -1.5 ± 0.17.
Consider UUCUAGCAAUAUUACGAUUA, for which the “self-splicing fitness (ln)” value reads like this: (30 °C) -0.696 ± 0.14; (37 °C) 0.682 ± 0.12.
On the same counts, the results for UUCUAGCAAUAUUACGCCUG are -1.79 ± 0.4 and -1.6 ± 0.49.
For UUCUAGCAAUAUUACGCGAG, the “self-splicing fitness (ln)” value reads like this: (30 °C) -2.97 ± 0.28; (37 °C) -1.45 ± 0.21.
On the same counts, the results for UUCUAGCAAUAUUACGCGGU are -2.74 ± 0.2 and -0.435 ± 0.24.
In the same order, the values of UUCUAGCAAUAUUACGGACU are -1.6 ± 0.17 and -1.16 ± 0.19.
As to UUCUAGCAAUAUUACGGAGC, under “30 °C”, the “self-splicing fitness (ln)” value was -2.48 ± 0.44.
On to UUCUAGCAAUAUUACGGCAU, for which the “self-splicing fitness (ln)” value is -1.81 ± 0.16 (30 °C) and -1.58 ± 0.19 (37 °C).
In the same order, the values of UUCUAGCAAUAUUACGUAUU are -3.61 ± 0.33 and -2.57 ± 0.25.
Turning to UUCUAGCAAUAUUACGUCAC, the “self-splicing fitness (ln)” value (37 °C) is -2.28 ± 0.37.
For the sequence UUCUAGCAAUAUUACGUGAA, the “self-splicing fitness (ln)” value by setting is: (30 °C) -0.339 ± 0.066; (37 °C) -0.148 ± 0.082.
On the same counts, the results for UUCUAGCAAUAUUACGUGGA are -1.73 ± 0.31 and -1.15 ± 0.18.
UUCUAGCAAUAUUACGUUAU: the “self-splicing fitness (ln)” value was -1.76 ± 0.26 (30 °C) and -2.14 ± 0.27 (37 °C).
Take UUGAAGCAAUAUUACGAAAA: the “self-splicing fitness (ln)” value is, setting by setting: (30 °C) -0.641 ± 0.12; (37 °C) 0.066 ± 0.15.
Regarding UUGAAGCAAUAUUACGAAAU, the “self-splicing fitness (ln)” value was -3.51 ± 0.13 (30 °C) and -0.963 ± 0.09 (37 °C).
